# Tests used:
# HLA-A*11:01 [1] = assay: IEDB peptide-MHC binding, purified MHC/competitive/fluorescence; ≥ and ≤ were set here for values at or beyond the usual limits of such assays
# HLA-A*02:02 = assay: IEDB peptide-MHC binding, purified MHC/competitive/radioactivity; filed as Kd, often an IC50 or EC50 that approximates it; ≥ and ≤ were set here for values at or beyond the usual limits of such assays
# HLA-A*68:02 = assay: as above
# HLA-A*02:06 = assay: as above
# HLA-A*02:03 = assay: as above
# HLA-A*02:01 [2] = assay: as above
# HLA-B*15:03 = assay: as above
# HLA-B*15:01 [3] = assay: as above
# HLA-B*08:01 [4] = assay: as above
# HLA-A*30:01 = assay: as above
# HLA-A*32:01 = assay: as above
# HLA-B*46:01 = assay: IEDB peptide-MHC binding, purified MHC/competitive/fluorescence; filed as Kd, often an IC50 or EC50 that approximates it; ≥ and ≤ were set here for values at or beyond the usual limits of such assays
# HLA-B*15:17 = assay: IEDB peptide-MHC binding, purified MHC/direct/fluorescence; filed as Kd, often an IC50 or EC50 that approximates it; ≥ and ≤ were set here for values at or beyond the usual limits of such assays
# HLA-B*57:01 = assay: as above
# HLA-B*58:01 = assay: as above
# HLA-B*40:01 [5] = assay: IEDB peptide-MHC binding, purified MHC/competitive/radioactivity; filed as Kd, often an IC50 or EC50 that approximates it; ≥ and ≤ were set here for values at or beyond the usual limits of such assays
# HLA-B*44:03 = assay: as above
# HLA-B*18:01 = assay: as above
# HLA-B*44:02 [6] = assay: as above
# HLA-B*40:02 = assay: as above
# HLA-B*45:01 = assay: as above
# HLA-B*40:01 [7] = assay: IEDB peptide-MHC binding, purified MHC/direct/fluorescence; filed as Kd, often an IC50 or EC50 that approximates it; ≥ and ≤ were set here for values at or beyond the usual limits of such assays; details: source organism: Giardia lamblia ATCC 50803
# HLA-A*03:01 = assay: as above; details: source organism: Giardia lamblia ATCC 50803
# HLA-A*69:01 = assay: as above; details: source organism: Giardia lamblia ATCC 50803
# HLA-B*07:02 = assay: as above; details: source organism: Giardia lamblia ATCC 50803
# HLA-A*31:01 = assay: as above; details: source organism: Giardia lamblia ATCC 50803
# HLA-B*08:01 [8] = assay: as above; details: source organism: Giardia lamblia ATCC 50803
# HLA-B*44:02 [9] = assay: as above; details: source organism: Giardia lamblia ATCC 50803
# HLA-B*27:05 = assay: as above; details: source organism: Giardia lamblia ATCC 50803
# HLA-A*26:01 = assay: as above; details: source organism: Giardia lamblia ATCC 50803
# HLA-B*15:01 [10] = assay: as above; details: source organism: Giardia lamblia ATCC 50803
# HLA-A*11:01 [11] = assay: as above; details: source organism: Giardia lamblia ATCC 50803
# HLA-A*02:01 [12] = assay: as above; details: source organism: Giardia lamblia ATCC 50803
# HLA-A*01:01 = assay: as above; details: source organism: Giardia lamblia ATCC 50803
# [13] = source organism: Vaccinia virus WR
# [14] = source organism: Vaccinia virus Copenhagen
# [15] = source organism: Trypanosoma cruzi
# [16] = source organism: Brucella melitensis
# [17] = source organism: Mammarenavirus brazilense
# [18] = source organism: Giardia lamblia ATCC 50803
# [19] = source organism: SARS coronavirus Tor2
# [20] = source organism: Mammarenavirus guanaritoense
# [21] = source organism: Mammarenavirus juninense
# [22] = source organism: Mammarenavirus lassaense
sequence,measurement,setting,value
EIFSAWISH,IC50,HLA-A*11:01 [1]; source organism: Variola virus,22600 nM
ELEQTYHAKL,Kd,HLA-A*02:02; source organism: Homo sapiens,2840 nM
same,Kd,HLA-A*68:02; source organism: Homo sapiens,9730 nM
same,Kd,HLA-A*02:06; source organism: Homo sapiens,≥ 71200 nM
same,Kd,HLA-A*02:03; source organism: Homo sapiens,≥ 94300 nM
same,Kd,HLA-A*02:01 [2]; source organism: Homo sapiens,≥ 40200 nM
FKAKWLTPF,Kd,HLA-B*15:03; [13],0.0731 nM
FLTYLDVSV,Kd,HLA-A*02:01 [2]; source organism: Homo sapiens,≤ 1 nM
FSALPTNEF,Kd,HLA-B*15:03; [13],0.13 nM
FSIYSVSCF,Kd,HLA-B*15:03; [14],7.64 nM
same,Kd,HLA-B*15:01 [3]; [14],3.1 nM
FSNFSTSHI,Kd,HLA-B*15:03; [13],510 nM
same,Kd,HLA-B*08:01 [4]; [13],3110 nM
same,Kd,HLA-A*30:01; [13],7500 nM
same,Kd,HLA-B*15:01 [3]; [13],110 nM
same,Kd,HLA-A*32:01; [13],18400 nM
GLLPLLLLLG,Kd,HLA-A*02:02; [15],79.2 nM
same,Kd,HLA-A*68:02; [15],7010 nM
same,Kd,HLA-A*02:06; [15],15.3 nM
same,Kd,HLA-A*02:03; [15],109 nM
same,Kd,HLA-A*02:01 [2]; [15],2.69 nM
IAASNLEQF,Kd,HLA-B*46:01; source organism: Brucella melitensis bv. 1 str. 16M,47.9 nM
same,Kd,HLA-B*15:17; [16],22.6 nM
same,Kd,HLA-B*57:01; [16],202 nM
same,Kd,HLA-B*58:01; [16],50 nM
IDNQKLSYL,Kd,HLA-B*40:01 [5]; [17],≥ 76100 nM
same,Kd,HLA-B*44:03; [17],≥ 78100 nM
same,Kd,HLA-B*18:01; [17],≥ 77500 nM
same,Kd,HLA-B*44:02 [6]; [17],≥ 77900 nM
same,Kd,HLA-B*40:02; [17],6520 nM
same,Kd,HLA-B*45:01; [17],17700 nM
ISAFPKNDF,Kd,HLA-B*15:03; [13],663 nM
ISWMMKLGI,Kd,HLA-B*15:03; [13],404 nM
same,Kd,HLA-B*08:01 [4]; [13],4840 nM
same,Kd,HLA-A*30:01; [13],6580 nM
same,Kd,HLA-B*15:01 [3]; [13],546 nM
same,Kd,HLA-A*32:01; [13],42.1 nM
ISYTYNDNW,Kd,HLA-B*40:01 [7],≥ 20000 nM
same,Kd,HLA-A*03:01,≥ 20000 nM
same,Kd,HLA-A*69:01,≥ 20000 nM
same,Kd,HLA-B*07:02,≥ 20000 nM
same,Kd,HLA-A*31:01,≥ 20000 nM
same,Kd,HLA-B*08:01 [8],≥ 20000 nM
same,Kd,HLA-B*44:02 [9],≥ 20000 nM
same,Kd,HLA-B*15:17; [18],1.4 nM
same,Kd,HLA-B*57:01; [18],64.1 nM
same,Kd,HLA-B*27:05,≥ 20000 nM
same,Kd,HLA-A*26:01,≥ 20000 nM
same,Kd,HLA-B*15:01 [10],≥ 20000 nM
same,Kd,HLA-B*58:01; [18],11.8 nM
same,Kd,HLA-A*11:01 [11],≥ 20000 nM
same,Kd,HLA-A*02:01 [12],≥ 20000 nM
ITFHNQRDF,Kd,HLA-B*46:01; [18],≥ 20000 nM
same,Kd,HLA-B*40:01 [7],≥ 20000 nM
same,Kd,HLA-A*03:01,≥ 20000 nM
same,Kd,HLA-A*69:01,≥ 20000 nM
same,Kd,HLA-B*07:02,≥ 20000 nM
same,Kd,HLA-A*31:01,≥ 20000 nM
same,Kd,HLA-B*08:01 [8],≥ 20000 nM
same,Kd,HLA-B*44:02 [9],≥ 20000 nM
same,Kd,HLA-B*15:17; [18],5.2 nM
same,Kd,HLA-B*57:01; [18],125 nM
same,Kd,HLA-A*01:01,≥ 20000 nM
same,Kd,HLA-B*27:05,≥ 20000 nM
same,Kd,HLA-A*26:01,≥ 20000 nM
same,Kd,HLA-B*15:01 [10],146 nM
same,Kd,HLA-B*58:01; [18],165 nM
same,Kd,HLA-A*11:01 [11],≥ 20000 nM
same,Kd,HLA-A*02:01 [12],≥ 20000 nM
KEGIVWVAT,Kd,HLA-B*40:01 [5]; [19],6260 nM
same,Kd,HLA-B*44:03; [19],12300 nM
same,Kd,HLA-B*18:01; [19],≥ 62800 nM
same,Kd,HLA-B*44:02 [6]; [19],≥ 20000 nM
same,Kd,HLA-B*40:02; [19],29.6 nM
same,Kd,HLA-B*45:01; [19],69.6 nM
KLTKDFSAL,Kd,HLA-A*02:02; source organism: Homo sapiens,20.5 nM
same,Kd,HLA-A*02:03; source organism: Homo sapiens,34.2 nM
same,Kd,HLA-A*02:01 [2]; source organism: Homo sapiens,550 nM
KTMAVTYEL,Kd,HLA-B*15:03; [14],34.5 nM
same,Kd,HLA-B*08:01 [4]; [14],18.7 nM
same,Kd,HLA-A*30:01; [14],10900 nM
same,Kd,HLA-B*15:01 [3]; [14],5.51 nM
same,Kd,HLA-A*32:01; [14],0.578 nM
LENAQPGLL,Kd,HLA-B*40:01 [5]; [20],1030 nM
same,Kd,HLA-B*44:03; [20],13800 nM
same,Kd,HLA-B*18:01; [20],10700 nM
same,Kd,HLA-B*44:02 [6]; [20],6080 nM
same,Kd,HLA-B*40:02; [20],182 nM
same,Kd,HLA-B*45:01; [20],≥ 48000 nM
LGGILPWTK,IC50,HLA-A*11:01 [1]; [13],536 nM
LLHQSSDKFV,Kd,HLA-A*02:02; source organism: Homo sapiens,14.4 nM
same,Kd,HLA-A*68:02; source organism: Homo sapiens,2970 nM
same,Kd,HLA-A*02:06; source organism: Homo sapiens,13500 nM
same,Kd,HLA-A*02:03; source organism: Homo sapiens,78.3 nM
same,Kd,HLA-A*02:01 [2]; source organism: Homo sapiens,808 nM
MDYLILKNL,Kd,HLA-B*40:01 [5]; [21],≥ 33900 nM
same,Kd,HLA-B*44:03; [21],2740 nM
same,Kd,HLA-B*18:01; [21],≥ 53700 nM
same,Kd,HLA-B*44:02 [6]; [21],11000 nM
same,Kd,HLA-B*40:02; [21],18.5 nM
same,Kd,HLA-B*45:01; [21],≥ 33200 nM
PEYFNSVCRL,Kd,HLA-B*40:01 [5]; [19],2830 nM
same,Kd,HLA-B*44:03; [19],9390 nM
same,Kd,HLA-B*18:01; [19],≥ 70500 nM
same,Kd,HLA-B*44:02 [6]; [19],≥ 32400 nM
same,Kd,HLA-B*40:02; [19],1250 nM
same,Kd,HLA-B*45:01; [19],≥ 33300 nM
QKFPYEGGK,IC50,HLA-A*11:01 [1]; source organism: Vaccinia virus,≥ 140000 nM
RLVRPFLVV,Kd,HLA-B*15:03; [13],15.9 nM
RQYMFYKIF,Kd,HLA-B*15:03; [14],0.0698 nM
same,Kd,HLA-A*32:01; [14],19.3 nM
SEGNATPGGY,Kd,HLA-B*40:01 [5]; [22],≥ 64200 nM
same,Kd,HLA-B*44:03; [22],7250 nM
same,Kd,HLA-B*18:01; [22],18700 nM
same,Kd,HLA-B*44:02 [6]; [22],19500 nM
same,Kd,HLA-B*40:02; [22],≥ 70800 nM
same,Kd,HLA-B*45:01; [22],≥ 70000 nM
SIPNFNQYEA,Kd,HLA-A*02:01 [2]; source organism: Lassa virus Josiah,≥ 25000 nM
SLADEAEVHL,Kd,HLA-A*02:01 [2]; source organism: Homo sapiens,29 nM
SLFEGIDFYT,Kd,HLA-A*02:01 [2]; source organism: Homo sapiens,1.1 nM
TEFACVVAEA,Kd,HLA-B*40:01 [5]; [19],1510 nM
same,Kd,HLA-B*44:03; [19],393 nM
same,Kd,HLA-B*18:01; [19],60.8 nM
same,Kd,HLA-B*44:02 [6]; [19],1440 nM
same,Kd,HLA-B*40:02; [19],14.6 nM
same,Kd,HLA-B*45:01; [19],8.98 nM
TMVNSLTYF,Kd,HLA-B*15:03; [13],0.126 nM
TQALQLFLR,IC50,HLA-A*11:01 [1]; source organism: Sudan ebolavirus,2530 nM
VEFHLDGEVL,Kd,HLA-B*40:01 [5]; [19],0.877 nM
same,Kd,HLA-B*44:03; [19],935 nM
same,Kd,HLA-B*18:01; [19],3230 nM
same,Kd,HLA-B*44:02 [6]; [19],3760 nM
same,Kd,HLA-B*40:02; [19],140 nM
same,Kd,HLA-B*45:01; [19],6950 nM
VENPDILRV,Kd,HLA-B*40:01 [5]; [19],≥ 21800 nM
same,Kd,HLA-B*44:03; [19],250 nM
same,Kd,HLA-B*18:01; [19],9070 nM
same,Kd,HLA-B*44:02 [6]; [19],5140 nM
same,Kd,HLA-B*40:02; [19],1270 nM
same,Kd,HLA-B*45:01; [19],474 nM
WEILKFLIT,Kd,HLA-B*40:01 [5]; [19],4360 nM
same,Kd,HLA-B*44:03; [19],1450 nM
same,Kd,HLA-B*18:01; [19],2900 nM
same,Kd,HLA-B*44:02 [6]; [19],9580 nM
same,Kd,HLA-B*40:02; [19],2.09 nM
same,Kd,HLA-B*45:01; [19],4990 nM
WITQCFLPV,Kd,HLA-A*02:01 [2]; source organism: Homo sapiens,173 nM
YVLPRRGPRL,Kd,HLA-A*02:01 [2]; source organism: Hepatitis C virus subtype 3a,3570 nM

# Reference: the Immune Epitope Database (IEDB)
